Series [1] concerns the target subtilisin BPN' mutant S149 (Bacillus amyloliquefaciens) (UniProt P00782). The experiment in a line: transient state kinetics with fluorogenic substrates.
For series [2] the target is unchanged. The experiment in a line: transient state kinetics with fluorogenic substrate.
Series [3] addresses fusion of the pR8 prodomain onto the N-terminus of the 56 amino acid B domain (GB) of streptococcal Protein G, P06654.

Experimental findings from US20060134740A1 are described below.

The star is where a group is joined. AMC = Cc1cc(=O)oc2cc(N*)ccc12

{code s}-DFRAM-{AMC} [fluorogenic pentapeptide substrate sDFRAM-AMC] yielded a fold preference over sDVRAF-AMC in series [1] of 5 fold. In addition, the Ks in series [2] was 1 µM.
Molecule {code s}-DVRAF-{AMC} [fluorogenic substrate sDVRAF-AMC] returned a Ks in series [2] of 5 µM.

B1: wild type subtilisin BPN' (protein)
chain: AQSVPYGVSQIKAPALHSQGYTGSNVKVAVIDSGIDSSHPDLKVAGGASMVPSETNPFQDNNSHGTHVAGTVAALNNSIGVLGVAPSASLYAVKVLGADGSGQYSWIINGIEWAIANNMDVINMSLGGPSGSAALKAAVDKAVASGVVVVAAAGNEGTSGSSSTVGYPGKYPSVIAVGAVDSSNQRASFSSVGPELDVMAPGVSIQSTLPGNKYGAYNGTSMASPHVAGAAALILSKHPNWTNTQVRSSLENTTTKLGDSFYYGKGLINVQAAAQ
In the case of B1, the “cleavage of the fusion protein” value in series [3] was “The fusion protein was rapidly and specifically cleaved to release GB from pR8”.
